# Results reported in patent publication US12479928B2, “Anti-cancer peptide” (Minerva Biotechnologies Corporation, priority 2014, dated 2025).
# B1: NME7-AB: recombinant human NME7 devoid of the DM10 domain, NDPK A and B domains, about 33 kDa monomer (protein)
# chain: MEKTLALIKPDAISKAGEIIEIINKAGFTITKLKMMMLSRKEALDFHVDHQSRPFFNELIQFITTGPIIAMEILRDDAICEWKRLLGPANSGVARTDASESIRALFGTDGIRNAAHGPDSFASAAREMELFFPSSGGCGPANTAKFTNCTCCIVKPHAVSEGLLGKILMAIRDAGFEISAMQMFNMDRVNVEEFYEVYKGVVTEYHDMVTEMYSGPCVAMEIQQNNATKTFREFCGPADPEIARHLRPGTLRAIFGKTKIQNAVHCTDLPEDGLLEVQYFFKILDN
# How the values were obtained:
# [1] = target: T1, PSMGFR peptide (MUC1* extracellular domain) (Homo sapiens, UniProt P15941); experiment: Sandwich ELISA: NME7-AB dimerizes MUC1* extra cellular domain peptide; type: binding
# T1 construct: The PSMGFR peptide bearing a C-terminal Cysteine (PSMGFR-Cys) was covalently coupled to BSA; made in house; host or cells: E. coli (NME7-AB)
# T1 sequence (P15941 1110-1154 limits assumed) 1: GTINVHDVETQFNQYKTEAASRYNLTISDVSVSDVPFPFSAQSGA
# T1 sequence (Q9Y5B8 92-376 partner limits assumed): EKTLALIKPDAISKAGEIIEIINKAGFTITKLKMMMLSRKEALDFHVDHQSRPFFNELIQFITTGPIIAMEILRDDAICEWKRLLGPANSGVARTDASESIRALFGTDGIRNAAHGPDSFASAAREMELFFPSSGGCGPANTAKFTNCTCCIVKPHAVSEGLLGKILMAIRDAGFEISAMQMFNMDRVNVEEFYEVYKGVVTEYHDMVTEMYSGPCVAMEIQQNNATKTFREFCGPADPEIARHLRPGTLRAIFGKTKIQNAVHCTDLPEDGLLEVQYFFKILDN
# T1 sequence (P15941 1110-1154 limits assumed) 3: T1 sequence (P15941 1110-1154 limits assumed) 1
# Method: The PSMGFR peptide bearing a C-terminal Cysteine (PSMGFR-Cys) was covalently coupled to BSA using Imject Maleimide activated BSA kit (Thermo Fisher). PSMGFR-Cys coupled BSA was diluted to 10 ug/mL in 0.1M carbonate/bicarbonate buffer pH 9.6 and 50 uL was added to each well of a 96 well plate. After overnight incubation at 4° C., the plate was washed twice with PBS-T and a 3% BSA solution was added to block remaining binding site on the well. After 1 h at RT the plate was washed twice with PBS-T and NME7, diluted in PBS-T+1% BSA, was added at different concentrations. After 1 h at RT the plate was washed 3× with PBS-T and anti-NM23-H7 (B-9, Santa Cruz Biotechnology), diluted in PBS-T+1% BSA, was added at 1/500 dilution. […] After 1 h at RT the plate was washed 3× with PBS-T and binding of NME7 was measured at 415 nm using ABTS solution (Pierce). […]
# After 1 h at RT the plate was washed 3× with PBS-T and HisTagged PSMGFR peptide (PSMGFR-His) or biotinylated PSMGFR peptide (PSMGFR-biotin), diluted in PBS-T+1% BSA, was added at different concentration. […] After 1 h at RT the plate was washed 3× with PBS-T and binding of PSMGFR peptide to NME7 already bound to another PSMGFR peptide (which could not signal by anti-His antibody or by streptavidin) coupled BSA was measured at 415 nm using a ABTS solution (Pierce).
# [2] = test system: OV-90 ovarian cancer cell line; experiment: RT-PCR of metastatic markers after culture in NME7-AB, OV-90; type: cell-based, human; settings: 72 or 144 hours
# Excerpt: (§1) FIGS. 37A-37C show graphs of RT-PCR measurements of metastatic markers in cancer cells after being cultured in a serum-free media containing NME7-AB compared to the standard media.
# [3] = test system: Human stem cells (iPS cat #SC101a-1); experiment: Human stem cell growth and pluripotency in NME7-AB or NM23-H1 dimers; type: cell-based; settings: for pluripotent stem cell growth / differentiation: 8 nM in Minimal Stem Cell Media
# Method: For testing recombinant NME7-AB for ability to maintain pluripotency and inhibit differentiation, a soluble variant of NME7, NME7-AB, was generated and purified. Human stem cells (iPS cat #SC101a-1, System Biosciences) were grown per the manufacturer's directions in 4 ng/ml bFGF over a layer of mouse fibroblast feeder cells for four passages. These source stem cells were then plated into 6-well cell culture plates (Vita™, Thermo Fisher) that had been coated with 12.5 ug/well of a monoclonal anti-MUC1* antibody, MN-C3. Cells were plated at a density of 300,000 cells per well. The base media was Minimal Stem Cell Media consisting of: 400 ml DME/F12/GlutaMAX I (Invitrogen #10565-018), 100 ml Knockout Serum Replacement (KO-SR, Invitrogen #10828-028), 5 ml 100×MEM Non-essential Amino Acid Solution (Invitrogen #11140-050) and 0.9 ml (0.1 mM) β-mercaptoethanol (55 mM stock, Invitrogen #21985-023). The base media can be any media. In a preferred embodiment, the base media is free of other growth factors and cytokines. To the base media was added either 8 nM of NME7-AB or 8 nM NM23-H1 refolded and purified as stable dimers. Media was changed every 48 hours and due to accelerated growth, had to be harvested and passaged at Day 3 post-plating.
# Cell counts at the first harvest verified that culture in NME7 produced 1.4-times more cells than culture in NM23-H1 dimers.
# [4] = test system: DU145 prostate cancer cells; experiment: RT-PCR of CSC markers after culture in NME7-AB, DU145; type: cell-based, human
# Method: FIG. 13 is a graph of RT-PCR measurements of gene expression for a variety of stem and putative cancer stem cell markers for DU145 prostate cancer cells. Cells were cultured either in traditional media or a media containing NME1 dimers (“NM23”) or NME7 (NME7-AB). Rho kinase inhibitor was not used because by passage 2, cells remained adherent.
# (§2) Ovarian cancer cells, pancreatic cancer cells and melanoma cells were also cultured in NME7-AB and were transformed to a more metastatic state after as few as 3 days in culture.
# [5] = test system: MDA-MB breast cancer cell line; experiment: RT-PCR of metastatic markers after culture in NME7-AB, MDA-MB; type: cell-based, human; settings: serum-free media containing NME7-AB
# Method: as §1, §2
molecule,measurement,setting,value
B1,simultaneous binding of PSMGFR peptides,[1],simultaneously binds to two PSMGFR peptides
same,metastatic marker expression after culture in NME7-AB,[2],increase expression of metastatic markers CXCR4 and NME7-X1
same,pluripotent stem cell growth / differentiation,[3],"fully supported human stem cell growth, pluripotency, and resisted differentiation"
same,pluripotent stem cell growth / differentiation,[3]; listed as NME7,no differentiation even when 100% confluent
same,cell number relative to culture in NM23-H1 dimers,"[3]; 8 nM, cell counts at first harvest",1.4 times
same,CSC marker expression after culture in NME7-AB,[4],dramatic increases in expression of CSC markers
same,metastatic marker expression after culture in NME7-AB,[5],increased expression of metastatic markers CDH1 aka E-cadherin and SOX2
